# Experimental data published in US20140357851A1.
# B1: 21B12 (isotype as tested not stated) (antibody, V domains shown)
# VH: QVQLVQSGAEVKKPGASVKVSCKASGYTLTSYGISWVRQAPGQGLEWMGWVSFYNGNTNYAQKLQGRGTMTTDPSTSTAYMELRSLRSDDTAVYYCARGYGMDVWGQGTTVTVSS
# VL: QSALTQPASVSGSPGQSITISCTGTSSDVGGYNSVSWYQQHPGKAPKLMIYEVSNRPSGVSNRFSGSKSGNTASLTISGLQAEDEADYYCNSYTSTSMVFGGGTKLTVL
# Target: PCSK9 S123R (human) (UniProt Q8NBP7)
# Experiment: Luminex bead assay
binder,measurement,value
B1,BmaxPerWT (% of wild type),87.6
same,RawMaxPerWT (% of wild type),88.1
